The results in this text go back to patent publication US20250051437A1 (University of California, published 2025).

The target of experiment [1] is T1, human cadherin-17 (CDH17), endogenously expressed on human cancer cell lines (LS513, SNU-C1, PaTu8988s, … (human, UniProt Q12864 23-832)).
T1 construct: also called LS513 (Colon, CDH17+); HPAF2
The experiment is described as follows: flow cytometry (iQue) on SNUC1 cells, 1 µg Ab. In general terms: A flow cytometer gives signals particle by particle.

Experiment [2] addresses T1, human cadherin-17 (CDH17), endogenously …. Description: flow cytometry (iQue) on LS513 cells, 1 µg Ab.
Experiment [3] concerns the target T2, mouse CDH17-mGFP fusion protein overexpressed on HEK293T cells (mouse, UniProt Q9R100 26-827).
T2 construct: also called HEK293T Mouse CDH17mGFP mass; not shown: mGFP fluorescent protein
The experiment is described as follows: flow cytometry (BD C6) on HEK293T Mouse CDH17 mGFP cells. The method, then:
To determine relative antigen binding strengths of the humanized antibodies, FACS assays were carried out as essentially described in Example 1. […] Using a BD Biosciences Accuri™ C6 Flow Cytometer (San Jose, CA), antibody binding based on Alexa Fluor® 647 fluorescence was measured in the FL4-H channel and fusion protein overexpression based on GFP fluorescence was measured in the FL1-H channel.

Experiment [4] addresses T3, human CDH17-mGFP fusion protein overexpressed on HEK293T cells (clone G11) (human, UniProt Q12864 23-832).
T3 construct: also called HEK293T CDH17mGFP Clone G11; HEK293T Human CDH17mGFP G11; not shown: mGFP fluorescent protein fused to CDH17
Description: KinExA, cell-based, HEK293T overexpressing human CDH17-mGFP (FIG. 16). The method, then:
The cell-based antibody affinity (KD) of the anti-CDH17 antibodies was measured by KinExA 4000 (Sapidyne Instrument, Boise, Idaho). Briefly, HEK293T overexpressing CDH17-fluorescent protein fusion (i.e., human CDH17-mGFP, monkey CDH17-mGFP, mouse CDH17-mGFP or rat CDH17-mGFP) were detached with Versene and equilibrated with either 50 pM, 200 pM, 20 nM, or 50 nM antibody in 2% FBS/DMEM at 4° C. overnight. The cell concentration started at 5×10⁶ cells/mL or 1×10⁷ cells/mL and 2-fold serial dilutions were performed up to 10 points. The next day, the cells were centrifuged at 1500 rpm for 10 min and the supernatants were saved. […] In contrast, while the humanized anti-CDH17 antibody, 07-0653-h43, fails to bind mouse CDH17 protein, it binds rat CDH17 protein equally well as to human and monkey CDH17 protein such that its Kp is less than about 1 nM for human, monkey and rat CDH17 proteins with overlapping 95% confidence interval values.
Background: In KinExA the mixture passes briefly over coated beads that capture the unbound partner.

For experiment [5], the target named is T4, rat CDH17 fused to moxGFP, overexpressed on HEK293T cells (rat, UniProt P55281 22-827).
T4 construct: whole, on cells; also called HEK293T Rat CDH17mGFP mass pop; rat CDH17-moxGFP
The experiment is described as follows: flow cytometry on HEK293T rat CDH17mGFP mass population, 20 µg/ml.

Experiment [6] addresses T3, human CDH17-mGFP fusion protein …. The experiment is described as follows: flow cytometry (iQue) on HEK293T CDH17 mGFP clone G11 (human), 0.2 µg Ab.
The target in experiment [7] is T1, human cadherin-17 (CDH17), endogenously …. Description: flow cytometry (iQue) on PATU8988S cells, 1 µg Ab.
For experiment [8] the target is unchanged. The experiment is described as follows: flow cytometry on LS513 cells (CDH17+), 20 µg/ml.
For experiment [9], the target named is T2, mouse CDH17-mGFP fusion protein …. The experiment is described as follows: flow cytometry on HEK293T mouse CDH17mGFP mass population, 20 µg/ml.
Experiment [10] addresses T1, human cadherin-17 (CDH17), endogenously …. The experiment is described as follows: flow cytometry (iQue) on SNUC1 cells, 0.2 µg Ab.
Experiment [11] shares this target. Description: KinExA, cell-based, SNUC1 cells.
Experiment [12] shares this target. Description: flow cytometry (iQue) on PATU8988S cells, 0.2 µg Ab.
A further experiment has as its target T5, Peptide 8 (also: biotin label, position not given here).
T5 construct: LDANGII with the third residue A changed to G; also called LDGNGII
T5 peptide: LDGNGII
The experiment is described as follows: titration ELISA, antibody 1500 to 0.157 ng/ml, biotinylated peptide on streptavidin-coated plate. A general note: ELISA stands for enzyme-linked immunosorbent assay.

The next experiment concerns the target T6, Peptide 1 (also: biotin label, position not given here).
T6 construct: also called Original 7-mer peptide; LDANGII
T6 peptide: LDANGII
Described as above.

A further experiment deals with T7, Peptide 2 (also: biotin label, position not given here).
T7 construct: LDANGII with the first residue L changed to A; also called ADANGII
T7 peptide: ADANGII
The experiment is described as above.

The target of another experiment is T8, Peptide 7 (also: biotin label, position not given here).
T8 construct: LDANGII with the seventh residue I changed to A; also called LDANGIA
T8 peptide: LDANGIA
The description is as above.

In experiment [13] the target is T9, recombinant CDH17 extracellular domain (ECD) with 6x His tag (human, UniProt Q12864 23-787).
T9 construct: also called Recombinant CDH17 ECD-6xhis tag
The experiment is described as follows: ELISA on recombinant CDH17 ECD-6xHis.

Where no end group is shown, it is not given here.

T2 sequence (Q9R100 26-827): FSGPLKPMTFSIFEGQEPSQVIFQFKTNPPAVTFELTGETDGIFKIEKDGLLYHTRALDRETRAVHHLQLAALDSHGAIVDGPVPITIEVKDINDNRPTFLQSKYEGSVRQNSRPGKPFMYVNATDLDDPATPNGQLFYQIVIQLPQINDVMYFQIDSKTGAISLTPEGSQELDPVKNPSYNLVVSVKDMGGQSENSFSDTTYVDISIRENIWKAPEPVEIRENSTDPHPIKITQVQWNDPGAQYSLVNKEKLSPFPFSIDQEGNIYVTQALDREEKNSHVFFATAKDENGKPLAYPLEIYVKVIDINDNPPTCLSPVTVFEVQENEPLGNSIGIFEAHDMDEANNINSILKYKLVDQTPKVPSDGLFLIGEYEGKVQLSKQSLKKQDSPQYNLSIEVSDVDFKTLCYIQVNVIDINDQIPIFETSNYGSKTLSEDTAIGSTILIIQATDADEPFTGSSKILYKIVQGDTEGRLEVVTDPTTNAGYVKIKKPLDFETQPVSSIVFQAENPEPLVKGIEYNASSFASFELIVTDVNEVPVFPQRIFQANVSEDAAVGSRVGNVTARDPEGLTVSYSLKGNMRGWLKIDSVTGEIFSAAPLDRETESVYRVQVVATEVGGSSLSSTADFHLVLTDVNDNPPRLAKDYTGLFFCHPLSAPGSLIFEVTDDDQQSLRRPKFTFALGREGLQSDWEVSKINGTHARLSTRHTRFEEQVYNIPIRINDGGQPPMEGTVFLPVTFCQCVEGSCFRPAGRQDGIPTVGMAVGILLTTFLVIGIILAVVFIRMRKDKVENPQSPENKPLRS
T4 sequence (P55281 22-827): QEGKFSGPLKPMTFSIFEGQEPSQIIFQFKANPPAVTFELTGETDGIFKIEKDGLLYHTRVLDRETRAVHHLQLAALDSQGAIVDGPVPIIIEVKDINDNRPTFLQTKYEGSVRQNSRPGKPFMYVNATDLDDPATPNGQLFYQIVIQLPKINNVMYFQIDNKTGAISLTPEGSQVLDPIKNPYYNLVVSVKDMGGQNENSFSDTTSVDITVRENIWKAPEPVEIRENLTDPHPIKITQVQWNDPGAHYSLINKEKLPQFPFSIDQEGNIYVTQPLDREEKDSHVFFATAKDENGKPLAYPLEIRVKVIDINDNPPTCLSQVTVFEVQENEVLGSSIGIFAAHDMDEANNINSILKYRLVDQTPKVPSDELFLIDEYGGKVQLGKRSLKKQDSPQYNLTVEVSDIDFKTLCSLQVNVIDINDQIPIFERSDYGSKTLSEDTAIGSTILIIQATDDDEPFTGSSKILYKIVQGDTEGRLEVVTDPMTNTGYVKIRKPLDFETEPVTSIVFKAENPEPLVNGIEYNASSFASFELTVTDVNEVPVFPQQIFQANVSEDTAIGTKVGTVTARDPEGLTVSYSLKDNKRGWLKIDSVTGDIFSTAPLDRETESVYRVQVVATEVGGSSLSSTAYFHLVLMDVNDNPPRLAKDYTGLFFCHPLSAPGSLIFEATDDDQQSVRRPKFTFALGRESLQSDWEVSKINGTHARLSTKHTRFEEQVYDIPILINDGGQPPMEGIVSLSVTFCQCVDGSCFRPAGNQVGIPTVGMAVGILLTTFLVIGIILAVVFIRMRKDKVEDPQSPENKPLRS

B1: humanized anti-CDH17 antibody 07-0663-h7 (antibody, human IgG1, kappa, V domains shown)
VH: QVQLVQSGAEVKKPGSSVKISCKVSGYTFTDHTIHWMRQAPGQGLEWIGYIFPRDDIVVYAQKFQGRATLTADKSTSTAYMELSSLRSEDTAVYYCARPPYYYSRNFYFDYWGQGTTLTVSS
VL: DIQMTQSPSSLSASVGDRVTITCRVSSIISSSKLHWYQQKPGKAPKPLIYGTSTLASGVPSRFSGSGSGTDYTLTISSLQPEDFATYYCQQWSNYPFTFGQGTKLEIKR
notes: Human IgG1 / kappa
By Kd is commonly meant the free concentration of one partner at which half of the binding sites on the other are occupied at equilibrium, for simple one-to-one binding. In general, EC50 refers to the concentration that produces a half-maximal response. With B1, the “Antibody Binding Activity by Flow iQue” value amounted to 76100 in experiment [1]; 2.3e+06 in experiment [2]; 57600 in [6]; 101000 in experiment [7]; 163000 in [10]; 102000 in experiment [12]. Further, the binding result in experiment [3] is recorded as “no binding (tested: 1 µg)”. Also, the Kd is less than 1 nM in experiment [4] and 0.157 nM in experiment [11]. Besides, the “Cross Reactivity by Flow” value in [5] is 2160; in experiment [9], 2420. In addition, the “Antibody Binding Activity by Flow Cytometry” value in [8] turned out to be 74700. Moreover, the EC50 turned out to be 2.98 nM with Peptide 8; 0.16 nM in the experiment with Peptide 1; 0.126 nM with Peptide 2; 0.117 nM with Peptide 7; 1.22 nM in experiment [13].
